According to patent US12221465:

Molecular target: empty A2-SABR pulsed with soluble MART1 peptide (…) (Homo sapiens; human) (UniProt P61769)
Assay: cell-based or functional assay

fold decrease in antigen sensitivity (concentration of the peptide required for half-maximal signaling), SABR signaling against TCR signaling: 30 fold
Substance: F5 TCR
